Key:
40 kDa protease = molecular target: T1, 40 kDa protease (Homo sapiens, UniProt Q96IY4, A169T/A260V/E345D/I347T/R257S); assay: Inhibition of natural brain APP degradation by the 40 kDa protease (Western blot, anti Aβ 1/14 or anti APP-CT antibody); type: biochemical; conditions: 37° C., 3 h
T1 construct: The 40 kDa proteolytic activity from fraction 19 was trapped in the column and recovered by elution; from tissue; host or cells: human hippocampus (autopsy brain)
T1 sequence (Q96IY4 23-360 isoform Q96IY4-2 A169T/R220S/A223V/E308D/I310T limits assumed): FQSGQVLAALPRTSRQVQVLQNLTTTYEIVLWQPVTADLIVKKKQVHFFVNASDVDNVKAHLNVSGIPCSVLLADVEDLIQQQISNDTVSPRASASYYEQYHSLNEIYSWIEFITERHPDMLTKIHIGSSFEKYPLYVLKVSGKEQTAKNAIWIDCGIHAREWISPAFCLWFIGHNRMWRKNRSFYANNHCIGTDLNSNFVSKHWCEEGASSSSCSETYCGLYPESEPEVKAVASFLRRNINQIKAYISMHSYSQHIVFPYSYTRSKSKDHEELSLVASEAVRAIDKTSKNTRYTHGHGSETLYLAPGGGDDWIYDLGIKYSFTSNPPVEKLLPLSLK
Procedure: After separation of proteins by SDS-PAGE, proteins on the gel was blotted onto a Hybond C nitrocellulose membrane (Amersham Pharmacia, UK), after which non-specific binding was blocked by immersing the membrane in 5% bovine serum albumin for 1 h in Tris-buffered saline: 100 mM Tris-HCl (pH 7.5), 140 mM NaCl and 0.1% Tween 20. The membrane next was washed for 45 min with three changes of the above buffer then incubated at 4° C. for 16 h with the first antibody (anti Aβ 1/14 antibody) appropriately diluted with Tris-buffered saline. After again washing it as above, the membrane was incubated at room temperature for 1 h with a horseradish peroxidase-labeled anti rabbit second antibody diluted 1:2000. After the washing, signals were detected on X-ray film using an ECL chemiluminescence detection system (Amersham Pharmacia, UK).

natural brain APP = assay: Proteolysis of natural brain APP by the isolated 40 kDa protease (Western blot); type: biochemical, human; conditions: 0.1 pmol APP, 0.005 to 0.1 pmol protease, 37° C., 3 h, 1 mM Zn2+; generates 5.5 kDa fragment
Procedure: In the proteolytic analysis of the fractions for natural brain APP, approximately 0.1 pmol of natural brain APP prepared from human hippocampus was incubated at 37° C. for 3 h with each fraction (approximately 0.05 pmol) in the presence of 1 mM Zn^2+. To obtain proteolytic activities of interest, each reaction mixture was loaded in parallel wells for SDS-PAGE then subjected to Western blot analysis using anti Aβ 1/14 antibody (Calbiochem) as follows.
After separation of proteins by SDS-PAGE, proteins on the gel was blotted onto a Hybond C nitrocellulose membrane (Amersham Pharmacia, UK), after which non-specific binding was blocked by immersing the membrane in 5% bovine serum albumin for 1 h in Tris-buffered saline: 100 mM Tris-HCl (pH 7.5), 140 mM NaCl and 0.1% Tween 20. The membrane next was washed for 45 min with three changes of the above buffer then incubated at 4° C. for 16 h with the first antibody (anti Aβ 1/14 antibody) appropriately diluted with Tris-buffered saline. […] After the washing, signals were detected on X-ray film using an ECL chemiluminescence detection system (Amersham Pharmacia, UK).
The brain APP substrate (approximately 0.1 pmol) was treated with the 40 kDa protease (0.005 to 0.1 pmol) at 37° C. for 3 h in the presence of 1 mM Zn^2+ to analyze the isolated 40 kDa protease. The reaction product analyzed by Western blotting with anti Aβ 1/14 antibody (FIG. 2). […]

synthetic Aβ 1-40 = assay: Carboxypeptidase digestion of synthetic Aβ 1-40 (Western blot); type: biochemical; conditions: 0.01 pM to 0.2 pM enzyme, 0.1 pM substrate, 37° C., 16 hours
Text: (§1) In Western blot analysis, low-molecular weight peptides (in which several amino acids have shifted) can be confirmed by anti-Aβ-N-terminus antibody regarding the Aβ 1-40 substrate, however this cannot be confirmed by the anti-Aβ 40 fragment antibody. On the other hand, low-molecular weight peptides (in which several amino acids have shifted) can be confirmed by anti-Aβ-N-terminus antibody regarding the Aβ 1-42 substrate, however this cannot be confirmed by the anti-Aβ 42 fragment antibody.

synthetic Aβ 1-42 = assay: Carboxypeptidase digestion of synthetic Aβ 1-42 (Western blot); type: biochemical; conditions: 0.01 pM to 0.2 pM enzyme, 0.1 pM substrate, 37° C., 16 hours
Text: as §1

[1] = Stability of proteolytic activity of native-PAGE fraction; type: physicochemical
Text: Of the 61 fractions analyzed, fraction 19 with a molecular mass of about 40 kDa and fraction 11 with a molecular mass of about 30 kDa had similar proteolytic activities. […] Fraction 19 with the 40 kDa molecular mass with proteolytic activity therefore was further purified.

## chondroitinase ABC
40 kDa protease; APP pretreated with 0.5 pmol chondroitinase ABC, FIG. 2 lane 3
  inhibition of brain APP degradation reaction: almost completely inhibited

## potato carboxypeptidase inhibitor: potato carboxypeptidase inhibitor (BioPur, Switzerland) (QQHADPICNKPCKTHDDCSGAWFCQACWNSARTCGPYVG)
40 kDa protease; 1 mM potato carboxypeptidase inhibitor, 1 mM Zn2+, FIG. 2 lane 4
  inhibition of brain APP degradation reaction: completely inhibited

B1: 40 kDa protein: 40 kDa protease purified from human hippocampal homogenate; brain carboxypeptidase B (SEQ ID NO: 2) (protein, listed as Homo sapiens)
chain: MKLCSLAVLVPIVLFCEQHVFAFQSGQVLAALPRTSRQVQVLQNLTTTYEIVLWQPVTADLIVKKKQVHFFVNASDVDNVKAHLNVSGIPCSVLLADVEDLIQQQISNDTVSPRASASYYEQYHSLNEIYSWIEFITERHPDMLTKIHIGSSFEKYPLYVLKVSGKEQTAKNAIWIDCGIHAREWISPAFCLWFIGHNRMWRKNRSFYANNHCIGTDLNSNFVSKHWCEEGASSSSCSETYCGLYPESEPEVKAVASFLRRNINQIKAYISMHSYSQHIVFPYSYTRSKSKDHEELSLVASEAVRAIDKTSKNTRYTHGHGSETLYLAPGGGDDWIYDLGIKYSFTSNPPVEKLLPLSLK
Natural brain APP
  degradation of natural brain APP: degraded natural brain APP
Synthetic Aβ 1-40
  formation of low-molecular weight peptides from Aβ 1-40: low-molecular weight peptides formed in a dose-dependent manner
Synthetic Aβ 1-42
  formation of low-molecular weight peptides from Aβ 1-42: low-molecular weight peptides formed in a dose-dependent manner

B2: fraction 11: native-PAGE fraction of about 30 kDa with proteolytic activity; mature form of HBCPB (protein)
chain: ASASYYEQYHSLNEIYSWIEFITERHPDMLTKIHIGSSFEKYPLYVLKVSGKEQTAKNAIWIDCGIHAREWISPAFCLWFIGHNRMWRKNRSFYANNHCIGTDLNRNFASKHWCEEGASSSSCSETYCGLYPESEPEVKAVASFLRRNINQIKAYISMHSYSQHIVFPYSYTRSKSKDHEELSLVASEAVRAIEKTSKNTRYTHGHGSETLYLAPGGGDDWIYDLGIKYSFTSNPPVEKLLPLSLK
[1]; 2 w at −20° C.
  activity after long-term storage: lost its activity
[1]; room temperature
  time to loss of proteolytic activity: ≤ 30 min
